The target in the series is YY1;FOXP2 FHD (human?;human?, UniProt P25490;O15409 1-414;504-594, |). The series can be described thus: EMSA; FOXP2 FHD 2.5-10 uM added; large complex more intense and slightly shifted; simultaneous binding suggested; Anisotropy: 10 mM HEPES pH 7.5, 100 mM NaCl, 20 C; EMSA: 0.5 uM DNA, 20% (v/v) of binding buffer (10 mM HEPES pH 7.5, 1 mM MgCl2, 100 mM KCl, 10% glycerol, 0.1). The conditions noted are these: protein: recombinant;recombinant; tags: N-terminal His6;His6 removed with thrombin.
YY1;FOXP2 FHD, sequence (P25490 whole entry, chain 1 of 2): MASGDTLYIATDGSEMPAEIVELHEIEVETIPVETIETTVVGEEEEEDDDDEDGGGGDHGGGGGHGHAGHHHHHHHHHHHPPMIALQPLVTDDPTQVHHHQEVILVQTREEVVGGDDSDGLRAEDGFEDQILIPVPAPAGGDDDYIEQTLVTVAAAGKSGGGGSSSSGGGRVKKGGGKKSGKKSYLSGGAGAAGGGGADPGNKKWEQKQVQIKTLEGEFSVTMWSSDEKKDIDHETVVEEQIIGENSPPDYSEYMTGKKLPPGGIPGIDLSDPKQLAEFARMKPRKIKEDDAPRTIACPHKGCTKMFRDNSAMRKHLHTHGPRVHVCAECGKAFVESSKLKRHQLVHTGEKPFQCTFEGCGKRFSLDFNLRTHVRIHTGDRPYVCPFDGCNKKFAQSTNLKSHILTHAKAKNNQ
YY1;FOXP2 FHD, sequence (O15409 504-594, chain 2 of 2): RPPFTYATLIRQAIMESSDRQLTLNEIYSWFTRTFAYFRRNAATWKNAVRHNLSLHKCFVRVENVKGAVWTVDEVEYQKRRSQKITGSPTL

B1: AAV P5 DNA (dsDNA)
DNA 1: AGGGTCTCCATTTTGAAGCG
DNA 2: CGCTTCAAAATGGAGACCCT
Take B1: the binding result is on record as “binds”.

For the origin of these results see PMC10611921, “Assessing the dynamics and macromolecular interactions of the intrinsically disordered protein YY1” (Bioscience Reports, 2023).
